Measured values from US20040018971A1.
Blank lines part the entries; values can stand above or below the binder they belong to.

Tests used:
[1] = biological target: HLA-A*0206 (human); assay: competition with 125I-labelled probe peptide for purified HLA, gel filtration; details: remark: other sources report otherwise
[2] = biological target: HLA-A*0203 (human); assay: as above; details: remark: other sources report otherwise
[3] = biological target: HLA-A*0201 (human); assay: as above; details: remark: other sources report otherwise
[4] = biological target: HLA-A*0202 (human); assay: as above; details: remark: other sources report otherwise
[5] = biological target: HLA-A*6802 (human); assay: as above; details: remark: other sources report otherwise
[6] = biological target: HLA-B*5301 (human); assay: competition vs 125I-labeled standard peptide, purified HLA; details: remark: other sources report otherwise
[7] = biological target: HLA-B*5401 (human); assay: as above; details: remark: other sources report otherwise
[8] = biological target: T1, HLA-DR3 (DRB1*0301) (human); assay: competition binding assay, purified HLA, 125I-labelled probe peptide, gel filtration; details: remark: other sources report otherwise
T1 chain 1: not shown
T1 chain 2: not shown

[9] = biological target: T2, HLA-DR2w2β2 (DRB5*0101) (human); assay: as above; details: remark: other sources report otherwise
T2 chain 1: not shown
T2 chain 2: not shown

[10] = biological target: T3, HLA-DR1 (DRB1*0101) (human); assay: as above; details: remark: other sources report otherwise
T3 chain 1: not shown
T3 chain 2: not shown

[11] = biological target: T4, HLA-DR5w11 (DRB1*1101) (human); assay: as above; details: remark: other sources report otherwise
T4 chain 1: not shown
T4 chain 2: not shown

[12] = biological target: T5, HLA-DR8w2 (DRB1*0802) (human); assay: as above; details: remark: other sources report otherwise
T5 chain 1: not shown
T5 chain 2: not shown

[13] = biological target: T6, HLA-DR3 (human); assay: competitive inhibition of 125I-labeled probe peptide binding to purified HLA-DR3; details: remark: other sources report otherwise
T6 chain 1: not shown
T6 chain 2: not shown

[14] = biological target: HLA-A*0101 (human); assay: competition with 125I-labelled probe peptide for purified HLA-A*0101, gel filtration; relative to standard peptide; details: remark: other sources report otherwise
[15] = biological target: HLA-A*1101 (human); assay: competition with 125I-labelled probe peptide for purified HLA-A*1101, gel filtration; standard peptide 940.06 [..] (6.0 nM); details: remark: other sources report otherwise; scale: ratio
[16] = biological target: HLA-A*0301 (human); assay: inhibition of 125I-labelled probe peptide binding to purified HLA-A*0301, gel filtration; ratio to standard peptide 941.12 [..] (11 nM); details: remark: other sources report otherwise
[17] = biological target: HLA-A*0101 (human); assay: competition with 125I-labelled probe peptide for purified HLA-A*0101, gel filtration; ratio = IC50 of standard peptide 944.02 / IC50 of test peptide; details: remark: other sources report otherwise
[18] = biological target: HLA-A*0101 (human); assay: competition with 125I-labelled probe peptide for purified HLA-A*0101, gel filtration; details: remark: other sources report otherwise; scale: ratio
[19] = biological target: T7, HLA-DRB1*1302 (human); assay: inhibition of 125I probe peptide binding to purified HLA-DR, gel filtration; details: remark: other sources report otherwise
T7 chain 1: not shown
T7 chain 2: not shown

[20] = biological target: T8, HLA-DRB1*0101 (human); assay: competition with 125I probe peptide, purified HLA; details: remark: other sources report otherwise
T8 chain 1: not shown
T8 chain 2: not shown

[21] = biological target: T8, HLA-DRB1*0101 (human); assay: competition with 125I-labelled standard peptide, purified HLA-DR, gel filtration; details: remark: other sources report otherwise
[22] = biological target: T9, HLA-DRB1*1101 (human); assay: as above; details: remark: other sources report otherwise
T9 chain 1: not shown
T9 chain 2: not shown

[23] = biological target: T8, HLA-DRB1*0101 (human); assay: inhibition of 125I probe peptide binding to purified HLA-DR, gel filtration; details: remark: other sources report otherwise
[24] = biological target: T9, HLA-DRB1*1101 (human); assay: as above; details: remark: other sources report otherwise
[25] = biological target: HLA-A*6801 (human); assay: competition with 125I-labelled standard peptide for purified HLA; gel filtration; details: remark: other sources report otherwise
[26] = biological target: HLA-B*5401 (human); assay: competition vs 125I-labelled probe peptide, purified HLA, gel filtration; details: remark: other sources report otherwise
[27] = biological target: HLA-B*5101 (human); assay: as above; details: remark: other sources report otherwise
[28] = biological target: HLA-B*0702 (human); assay: competition with 125I-labelled probe peptide for purified HLA, gel filtration; details: scale: ratio
[29] = biological target: HLA-A*1101 (human); assay: competition with 125I-labelled standard peptide for purified HLA; gel filtration; details: remark: other sources report otherwise
[30] = biological target: HLA-A*0202 (human); assay: competition with 125I probe peptide for purified HLA; details: remark: other sources report otherwise
[31] = biological target: HLA-A*6802 (human); assay: as above; details: remark: other sources report otherwise
[32] = biological target: T10, HLA-DRB1*0701 (human); assay: competition with 125I probe peptide, purified HLA; details: remark: other sources report otherwise
T10 chain 1: not shown
T10 chain 2: not shown

[33] = biological target: T10, HLA-DRB1*0701 (human); assay: inhibition of 125I probe peptide binding to purified HLA-DR, gel filtration; details: remark: other sources report otherwise
[34] = biological target: HLA-A*6801 (human); assay: inhibition of 125I probe peptide binding to purified HLA; details: remark: other sources report otherwise
[35] = biological target: HLA-A*3101 (human); assay: as above; details: remark: other sources report otherwise
[36] = biological target: HLA-A*0201 (human); assay: competition with 125I probe peptide for purified HLA; details: remark: other sources report otherwise
[37] = biological target: HLA-A*0201 (human); assay: competition with 125I-labelled standard peptide 941.01 for purified HLA, gel filtration; details: remark: other sources report otherwise; scale: ratio
[38] = biological target: HLA-A*1101 (human); assay: competitive inhibition of 125I-labeled probe peptide binding to purified HLA-A*1101, gel filtration; details: remark: other sources report otherwise; scale: ratio
[39] = biological target: HLA-A*0101 (purified HLA class I molecule) (human); assay: competition with 125I-labelled standard peptide on purified HLA-A*0101, gel filtration; details: remark: other sources report otherwise
[40] = biological target: HLA-B*5101 (human); assay: competition vs 125I-labeled standard peptide, purified HLA; details: remark: other sources report otherwise
[41] = biological target: HLA-A*0201 (human); assay: competitive inhibition of 125I-labeled probe peptide binding to purified HLA-A*0201; details: remark: other sources report otherwise
[42] = biological target: HLA-A*0201 (human); assay: competition for purified HLA vs 125I-labelled probe peptide, gel filtration; details: remark: other sources report otherwise
[43] = biological target: T11, HLA-DR6w19 (DRB1*1302) (human); assay: competition binding assay, purified HLA, 125I-labelled probe peptide, gel filtration; details: remark: other sources report otherwise
T11 chain 1: not shown
T11 chain 2: not shown

[44] = biological target: T12, HLA-DR2w2β1 (DRB1*1501) (human); assay: as above; details: remark: other sources report otherwise
T12 chain 1: not shown
T12 chain 2: not shown

[45] = biological target: HLA-A*0201 (human); assay: competition with 125I-labelled standard peptide for purified HLA-A*0201, gel filtration; ratio to the standard peptide; details: remark: other sources report otherwise
[46] = biological target: HLA-A*0301 (human); assay: competition with 125I-labelled standard peptide for purified HLA; gel filtration; details: remark: other sources report otherwise
[47] = biological target: T13, HLA-DR7 (DRB1*0701) (human); assay: competition with 125I-labelled probe peptide on purified HLA-DR, gel filtration; IC50 of standard peptide / IC50 of test peptide; details: remark: other sources report otherwise
T13 chain 1: not shown
T13 chain 2: not shown

[48] = biological target: T14, HLA-DR4w4 (DRB1*0401) (human); assay: as above; details: remark: other sources report otherwise
T14 chain 1: not shown
T14 chain 2: not shown

B1: Her2/neu.665L2V9 (peptide)
peptide: VLLGVVFGV
IC50 [1]: 6 nM
IC50 [2]: 14 nM
IC50 [3]: 2.4 nM
IC50 [4]: 17 nM
IC50 [5]: 8000 nM

B3: HER2/neu peptide … (position 482) (peptide)
peptide: WDQLFRNPHQALLHT
relative binding ratio (ratio to standard peptide) [8]: 0.9
relative binding ratio (ratio to standard peptide) [9]: -0.0007
relative binding ratio (ratio to standard peptide) [10]: -0.0001
relative binding ratio (ratio to standard peptide) [11]: -0.0008
relative binding ratio (ratio to standard peptide) [12]: -0.0009

B4: Her2/neu.482 (peptide)
peptide: WDQLFRNPHQALLHT
IC50 [13]: < 1000 nM

B5: HER2/neu peptide, position 869, 9 amino acids (peptide)
peptide: LLDIDETEY
relative binding ratio (IC50 of standard peptide / IC50 of test peptide) (relative binding ratio) [14]: 7.6
relative binding ratio [15]: 0.0001
relative binding ratio (IC50 of standard peptide / IC50 of test peptide) [16]: 0.0003
relative binding ratio [17]: 7.6
relative binding ratio [18]: 7.6

B6: Her2/neu.717 (peptide)
peptide: ETELRKVKVLGSGAF
IC50 [19]: 2500 nM

B9: Her2/neu.648 (peptide)
peptide: ASPLTSIISAVVGIL
IC50 [19]: 73 nM

B11: HER2/neu peptide, position 941, 11 amino acids (peptide)
peptide: LPQPPICTIDV
modifications: not checked
relative binding ratio [28]: 0.0032

B13: Her2/neu.106 (9-mer) … (peptide)
peptide: QLFEDNYAL
IC50 [30]: 226 nM
IC50 [31]: 2100 nM

B15: Her2/neu.669 (AA 10) (peptide)
peptide: VVFGILIKRR
IC50 [34]: 15 nM
IC50 [35]: 290 nM

B16: Her2/neu.422 (peptide)
peptide: LSVFQNLQVIRGRIL
IC50 [32]: 86 nM
IC50 [20]: 28 nM
IC50 [33]: 86 nM
IC50 [23]: 28 nM

B17: HER2/neu peptide, position 246, 9 amino acids (peptide)
peptide: GPKHSDCLA
relative binding ratio ([28]; remark: other sources report otherwise): 0.0001

B19: HER2/neu peptide, position 657, 10 amino acids (peptide)
peptide: AVVGILLVVV
relative binding ratio [37]: 0.0002

B20: HER2/neu peptide, position 826, 10 amino acids (peptide)
peptide: CMQIAKGMSY
relative binding ratio [38]: 0.0001
relative binding ratio (IC50 of standard peptide / IC50 of test peptide) (relative binding ratio) [14]: 0.3
relative binding ratio [18]: 0.3
relative binding ratio (IC50 of standard peptide / IC50 of test peptide) [39]: 0.3

B22: Her2/neu.666 (peptide)
peptide: VLGVVFGILIKRRQQ
IC50 [22]: 43 nM
IC50 [24]: 43 nM

B24: HER2/neu peptide … (position 958) (peptide)
peptide: CWMIDSECRPRFREL
relative binding ratio (ratio to standard peptide) [43]: -0.0001
relative binding ratio (ratio to standard peptide) [44]: -0.0006
relative binding ratio (ratio to standard peptide) [11]: -0.0008

B25: HER2/neu peptide, position 971, 9 amino acids (peptide)
peptide: ELVSEFSRM
relative binding ratio (IC50 of standard peptide / IC50 of test peptide) [45]: 0.0001

B27: HER2/neu peptide … (position 909) (peptide)
peptide: GVTVWELMTFGAKPY
relative binding ratio [47]: 0.017
relative binding ratio [48]: 0.033

Continued, values first:

IC50 [6]: 490 nM
IC50 [7]: 29 nM
B2: Her2/neu.921, 8-mer (peptide)
peptide: KPYDGIPA

IC50 [20]: 58 nM
IC50 [21]: 58 nM
IC50 [22]: 3700 nM
IC50 [23]: 58 nM
IC50 [24]: 3700 nM
B7: Her2/neu.912 (peptide)
peptide: VWELMTFGAKPYDGI

IC50 [25]: 500 nM
B8: Her2/neu.846 (peptide)
peptide: LAARNVLVK

IC50 [26]: 19 nM
IC50 [27]: 4.2 nM
B10: Her2/neu.941 (peptide)
peptide: LPQPPICTI
modifications: not checked

IC50 [29]: 25 nM
B12: Her2/neu.860 (peptide)
peptide: KITDFGLAR

IC50 [32]: 2500 nM
IC50 [20]: 22 nM
IC50 [33]: 2500 nM
IC50 [23]: 22 nM
B14: Her2/neu.793 (peptide)
peptide: TVQLVTQLMPYGCLL

IC50 [36]: 200 nM
B18: Her2/neu.773 … (peptide)
peptide: VMAGVGSPYV

IC50 [6]: 5170 nM
IC50 [7]: 303 nM
IC50 [40]: 74 nM
B21: Her2/neu.921.I8 (peptide)
peptide: KPYDGIPI

IC50 [41]: < 500 nM
IC50 [42]: 200 nM
B23: Her2/neu.773 (peptide)
peptide: VMAGVGSPYV

IC50 [46]: 200 nM
B26: Her2/neu.754.V2R9 (peptide)
peptide: VVRENTSPR
